Results as given in the supplement of paper PMC10126150.
± gives the standard deviation of the averaged measurements.

System: ATP
Experiment: switch fluorescence ratio, 500 uM ATP over buffer (Cy3 cluster intensity, sum of 5 cycles each) (fold (ratio)); higher = stronger signal-on switching upon ATP binding; sequences stand for … in TCGTCGGCAGCGTCAGATGTGTATAAGAGACAGTTTTTTTTTTTTTTTTTTTTTTTTT…TC
Settings: aptamer strand: ATP DNA aptamer (quencher-CACCTGGGGGAGTATTGCGGAGGAAGG + anchor), 100 nM annealed; ATP concentration: 500 uM
Method in brief: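 Switching-strand clusters labelled with Cy3 on a modified Illumina MiSeq flow-cell were annealed to 100 nM quencher-labelled ATP aptamer, imaged in selection buffer, and re-imaged after 15 min with 500 uM ATP at 22 °C. This was done over five cycles with NaOH stripping and re-annealing in between. The fluorescence ratio is summed target-cycle over summed buffer-cycle Cy3 intensity per cluster, averaged per switch-domain sequence, excluding clusters outside 100-1000 RFU.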
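Further: ATP exposure 15 min at 22 °C before imaging.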

GATAACGAGG
switch fluorescence ratio: 1.05 ± 0.02

GATACACCCG
switch fluorescence ratio: 1.153 ± 0.0039

GATACTATGT
switch fluorescence ratio: 1.01 ± 0.0085

GATACTGATA
switch fluorescence ratio: 1.032 ± 0.0098

GATACTTGGG
switch fluorescence ratio: 0.989 ± 0.035

GATAGAAGGA
switch fluorescence ratio: 1.02 ± 0.033

GATAGAGGGG
switch fluorescence ratio: 0.984 ± 0.028

GATAGCATTT
switch fluorescence ratio: 1.04 ± 0.039

GATAGCCCGT
switch fluorescence ratio: 0.99 ± 0.021

GATAGCCTGT
switch fluorescence ratio: 1.01 ± 0.027

GATAGCGCAG
switch fluorescence ratio: 1.01 ± 0.063

GATAGGACGC
switch fluorescence ratio: 1.05 ± 0.02

GATAGGAGCC
switch fluorescence ratio: 0.9977 ± 0.002

GATAGGCAAA
switch fluorescence ratio: 1.017 ± 0.0051

GATAGGGGGC
switch fluorescence ratio: 1.13 ± 0.28

GATAGGGGGG
switch fluorescence ratio: 1 ± 0.03

GATAGTGAGC
switch fluorescence ratio: 0.983 ± 0.036

GATAGTTAGG
switch fluorescence ratio: 1.01 ± 0.021

GATATAAACG
switch fluorescence ratio: 1.02 ± 0.03

GATATATAAT
switch fluorescence ratio: 1.014 ± 0.002

GATATCATTT
switch fluorescence ratio: 1.03 ± 0.022

GATATCCAGC
switch fluorescence ratio: 1.02 ± 0.023

GATATCCCGG
switch fluorescence ratio: 0.987 ± 0.022

GATATCGATG
switch fluorescence ratio: 1.029 ± 0.0089

GATATCGCCG
switch fluorescence ratio: 1.022 ± 0.0034

GATATCGTCT
switch fluorescence ratio: 1.03 ± 0.028

GATATGGGGA
switch fluorescence ratio: 0.994 ± 0.044

GATATGGGGT
switch fluorescence ratio: 0.9828 ± 0.0085

GATATTTGAT
switch fluorescence ratio: 0.995 ± 0.042

GATCAATTGG
switch fluorescence ratio: 1.02 ± 0.026

GATCACTGTT
switch fluorescence ratio: 0.996 ± 0.062

GATCATCCTT
switch fluorescence ratio: 1.03 ± 0.0052

GATCATCGAT
switch fluorescence ratio: 1.02 ± 0.013

GATCATTAGA
switch fluorescence ratio: 1.05 ± 0.061

GATCATTGAG
switch fluorescence ratio: 0.991 ± 0.012

GATCATTGTT
switch fluorescence ratio: 1.007 ± 0.0088

GATCATTTTT
switch fluorescence ratio: 0.984 ± 0.021

GATCCAGCGG
switch fluorescence ratio: 1.02 ± 0.025

GATCCTAAGC
switch fluorescence ratio: 0.99 ± 0.014

GATCCTGGGC
switch fluorescence ratio: 1.03 ± 0.015

GATCGAAGTT
switch fluorescence ratio: 0.984 ± 0.033

GATCGAGGTC
switch fluorescence ratio: 1.0474 ± 0.001

GATCGGGAGG
switch fluorescence ratio: 0.9844 ± 0.0089

GATCGGGGAA
switch fluorescence ratio: 1.01 ± 0.02

GATCGGGGGT
switch fluorescence ratio: 1.01 ± 0.027

GATCGTATTC
switch fluorescence ratio: 1.05 ± 0.088

GATCTAGAGG
switch fluorescence ratio: 0.994 ± 0.019

GATCTCAGAG
switch fluorescence ratio: 0.967 ± 0.014

GATCTCCGGC
switch fluorescence ratio: 1.63 ± 0.063

GATCTGGATA
switch fluorescence ratio: 0.9964 ± 0.0013

GATCTGGTAC
switch fluorescence ratio: 1.06 ± 0.037

GATCTTATCT
switch fluorescence ratio: 1.03 ± 0.022

GATCTTGATG
switch fluorescence ratio: 1.02 ± 0.036

GATCTTTCCG
switch fluorescence ratio: 1.08 ± 0.059

GATCTTTCGT
switch fluorescence ratio: 1.01 ± 0.031

GATCTTTTTG
switch fluorescence ratio: 1.02 ± 0.014

GATGAAAGGG
switch fluorescence ratio: 1.22 ± 0.46

GATGAACCTA
switch fluorescence ratio: 1.04 ± 0.024

GATGAATGTT
switch fluorescence ratio: 0.9766 ± 0.0041

GATGAGAATT
switch fluorescence ratio: 0.98912 ± 0.00024

GATGAGGATT
switch fluorescence ratio: 1.01 ± 0.011

GATGAGGTAT
switch fluorescence ratio: 0.9899 ± 0.002

GATGATCACA
switch fluorescence ratio: 0.951 ± 0.036

GATGATCAG
switch fluorescence ratio: 0.978 ± 0.035

GATGATGTCC
switch fluorescence ratio: 0.96 ± 0.01

GATGCAAGAG
switch fluorescence ratio: 3.78 ± 0.7

GATGCAATCT
switch fluorescence ratio: 1.44 ± 0.08

GATGCAGCAA
switch fluorescence ratio: 1.22 ± 0.062

GATGCCGGGG
switch fluorescence ratio: 1.05 ± 0.095

GATGCCTTTG
switch fluorescence ratio: 0.994 ± 0.018

GATGCGGGAC
switch fluorescence ratio: 1.34 ± 0.07

GATGCGGGGC
switch fluorescence ratio: 1.06 ± 0.03

GATGCGTCAC
switch fluorescence ratio: 1.06 ± 0.056

GATGCGTGCT
switch fluorescence ratio: 0.993 ± 0.055

GATGCGTTCG
switch fluorescence ratio: 1.01 ± 0.018

GATGGAGTTA
switch fluorescence ratio: 1.01 ± 0.047

GATGGATAAG
switch fluorescence ratio: 1.009 ± 0.0024

GATGGATTCG
switch fluorescence ratio: 1.01 ± 0.026

GATGGCAGCA
switch fluorescence ratio: 1.021 ± 0.0086

GATGGCTTGG
switch fluorescence ratio: 0.987 ± 0.018

GATGGGAGTT
switch fluorescence ratio: 1.01 ± 0.014

GATGGGCAGG
switch fluorescence ratio: 1 ± 0.024

GATGGGGATA
switch fluorescence ratio: 1.02 ± 0.013

GATGGGGGCC
switch fluorescence ratio: 0.998 ± 0.026

GATGGGGGCG
switch fluorescence ratio: 1.03 ± 0.093

GATGGGGGGA
switch fluorescence ratio: 1.01 ± 0.029

GATGGGGGTT
switch fluorescence ratio: 1 ± 0.012

GATGGGGTAG
switch fluorescence ratio: 0.994 ± 0.039

GATGGGTGAC
switch fluorescence ratio: 0.992 ± 0.024

GATGGTAGTC
switch fluorescence ratio: 0.994 ± 0.027

GATGGTGAAA
switch fluorescence ratio: 0.975 ± 0.039

GATGGTGTTT
switch fluorescence ratio: 1 ± 0.034

GATGTAAGTG
switch fluorescence ratio: 0.972 ± 0.02

GATGTAATTG
switch fluorescence ratio: 0.9822 ± 0.0094

GATGTACGCA
switch fluorescence ratio: 0.973 ± 0.075

GATGTAGACT
switch fluorescence ratio: 0.9818 ± 0.0033

GATGTATAAA
switch fluorescence ratio: 1.0015 ± 0.00099

GATGTATGGA
switch fluorescence ratio: 0.997 ± 0.027

GATGTATGGG
switch fluorescence ratio: 0.984 ± 0.015

GATGTGAGGC
switch fluorescence ratio: 1.14 ± 0.046

GATGTGCAGA
switch fluorescence ratio: 0.959 ± 0.038

GATGTGCAGG
switch fluorescence ratio: 0.9915 ± 0.0084

GATGTGGTCT
switch fluorescence ratio: 1.014 ± 0.0075

GATGTGTCCG
switch fluorescence ratio: 0.956 ± 0.086

GATGTGTGGC
switch fluorescence ratio: 0.974 ± 0.022

GATGTTAGGG
switch fluorescence ratio: 0.983 ± 0.026

GATGTTCGGC
switch fluorescence ratio: 1.05 ± 0.037

GATGTTGGGA
switch fluorescence ratio: 0.989 ± 0.016

GATTAAATAC
switch fluorescence ratio: 1.24 ± 0.064

GATTAAGAAT
switch fluorescence ratio: 1 ± 0.027

GATTAGAAGG
switch fluorescence ratio: 1 ± 0.026

GATTAGGGTG
switch fluorescence ratio: 1.01 ± 0.026

GATTATAAGG
switch fluorescence ratio: 1.007 ± 0.01

GATTATAAGT
switch fluorescence ratio: 0.99 ± 0.017

GATTATATGG
switch fluorescence ratio: 1 ± 0.039

GATTATATTT
switch fluorescence ratio: 0.997 ± 0.045

GATTATCTGG
switch fluorescence ratio: 0.984 ± 0.025

GATTATGTTA
switch fluorescence ratio: 0.9772 ± 0.007

GATTATTTTC
switch fluorescence ratio: 1.03 ± 0.061

GATTATTTTT
switch fluorescence ratio: 0.994 ± 0.028

GATTCCGTCC
switch fluorescence ratio: 1.177 ± 0.0046

GATTCGTCGG
switch fluorescence ratio: 1.01 ± 0.021

GATTGAAGCC
switch fluorescence ratio: 0.962 ± 0.064

GATTGAGATT
switch fluorescence ratio: 0.981 ± 0.033

GATTGAGCCC
switch fluorescence ratio: 0.971 ± 0.037

GATTGAGGAG
switch fluorescence ratio: 0.981 ± 0.03

GATTGAGGGA
switch fluorescence ratio: 1.01 ± 0.016

GATTGAGGGG
switch fluorescence ratio: 1.01 ± 0.017

GATTGAGTTT
switch fluorescence ratio: 0.9866 ± 0.0089

GATTGCATGG
switch fluorescence ratio: 1.02 ± 0.013

GATTGCTCGT
switch fluorescence ratio: 0.975 ± 0.028

GATTGCTTTC
switch fluorescence ratio: 1.02 ± 0.023

GATTGGGACT
switch fluorescence ratio: 0.975 ± 0.027

GATTGGGAGC
switch fluorescence ratio: 1.01 ± 0.037

GATTGGGAGG
switch fluorescence ratio: 1.03 ± 0.034

GATTGGGCCA
switch fluorescence ratio: 0.996 ± 0.017

GATTGGGGGG
switch fluorescence ratio: 1 ± 0.029

GATTGGGTAG
switch fluorescence ratio: 0.999 ± 0.02

GATTGGGTGA
switch fluorescence ratio: 0.972 ± 0.011

GATTGGTACT
switch fluorescence ratio: 1 ± 0.02

GATTGTTTTA
switch fluorescence ratio: 1.02 ± 0.016

GATTTAAAGC
switch fluorescence ratio: 0.984 ± 0.034

GATTTACAGC
switch fluorescence ratio: 1.02 ± 0.054

GATTTAGTAC
switch fluorescence ratio: 1.01 ± 0.067

GATTTCAGTG
switch fluorescence ratio: 0.974 ± 0.023

GATTTCATCT
switch fluorescence ratio: 0.995 ± 0.032

GATTTCGGTC
switch fluorescence ratio: 1.05 ± 0.056

GATTTGATGG
switch fluorescence ratio: 0.987 ± 0.045

GATTTGGAAT
switch fluorescence ratio: 0.986 ± 0.037

GATTTGGATT
switch fluorescence ratio: 0.993 ± 0.012

GATTTGGTAG
switch fluorescence ratio: 1 ± 0.023

GATTTGTCGT
switch fluorescence ratio: 0.986 ± 0.022

GATTTTACGT
switch fluorescence ratio: 1.021 ± 0.0067
